Consider 5 molecules from patent publication US20160002297A1, “THERAPEUTIC AGENTS” (NATIONAL UNIVERSITY OF SINGAPORE, priority 2013, published 2016).

Assay [1] addresses T1, GRP78 (Homo sapiens, UniProt P11021). As to the kind of experiment: Co-immunoprecipitation with GRP78. The assay is classed as binding. The protocol:
(§1) The membrane fraction of HUVECs was isolated by using Mem-PER Eukaryotic Membrane Protein Extraction Kit which was also obtained from Pierce (Rockford, Ill., USA).
1 μg antibodies of GRP78 were pre-immobilized on 20 μl protein A/G agarose beads from Santa Cruz (Santa Cruz, Calif., USA) for 1 h at room temperature. Unbound antibodies were washed out by 100 mM Tris-Hcl (pH 8.0). Then 1 μg ISM and 1 μg GRP78 (or 1 mg membrane fraction protein lysates containing GRP78) were incubated with GRP78 antibody mounted beads for 4 h at 4° C. After removing the unbound proteins, precipitates were resolved by SDS-PAGE and analyzed for the presence of ISM, GRP78 or AACs by Western blotting.
Target sequence in this assay (P11021 19-654, species assumed): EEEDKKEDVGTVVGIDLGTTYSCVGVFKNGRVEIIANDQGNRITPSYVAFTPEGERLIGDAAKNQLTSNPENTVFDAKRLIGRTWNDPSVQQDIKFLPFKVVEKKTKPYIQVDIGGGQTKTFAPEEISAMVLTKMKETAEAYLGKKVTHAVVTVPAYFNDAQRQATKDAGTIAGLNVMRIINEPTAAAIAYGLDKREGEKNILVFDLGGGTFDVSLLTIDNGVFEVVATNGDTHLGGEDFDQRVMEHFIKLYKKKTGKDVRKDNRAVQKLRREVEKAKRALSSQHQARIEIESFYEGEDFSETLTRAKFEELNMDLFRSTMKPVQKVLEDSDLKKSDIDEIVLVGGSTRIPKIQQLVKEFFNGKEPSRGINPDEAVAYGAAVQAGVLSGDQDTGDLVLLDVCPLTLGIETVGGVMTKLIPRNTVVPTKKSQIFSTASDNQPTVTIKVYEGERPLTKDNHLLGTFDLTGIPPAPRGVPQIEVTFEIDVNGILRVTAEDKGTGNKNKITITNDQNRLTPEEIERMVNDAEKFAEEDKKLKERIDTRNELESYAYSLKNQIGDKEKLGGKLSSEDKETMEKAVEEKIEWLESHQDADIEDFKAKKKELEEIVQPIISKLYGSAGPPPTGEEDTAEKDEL

For assay [2], the system named is B16 melanoma. As to the kind of experiment: FITC-RKD targeting to subcutaneous B16 tumor in mice after intravenous delivery. The note with it: delivered intravenously. The class given is in vivo, mouse. The source says:
FIG. 9 FITC labelled cRKD (FITC-RKD) targets to subcutaneous B16 tumor in mice when delivered intravenously.
FIG. 10 FITC-RKD targets both the B16 melanoma tumor cells and tumor ECs when delivered intravenously;

The test system of assay [3] is HUVECs. As to the kind of experiment: Uptake of FITC-labelled peptide by cultured HUVECs. The assay is classed as cell-based, human. As to conditions: compared to FITC-labeled cRAA peptide. The source says: FIG. 11 FITC-RKD peptide enters cultured HUVECs likely by endocytosis;
Assay [4] concerns 4T1 breast carcinoma cells. As to the kind of experiment: FITC-RKD binding to the 4T1 breast cancer cell surface in vitro. As to conditions: 24 h treatment. The assay is classed as cell-based. The protocol: FIG. 12a FITC-RKD peptide binds to cell-surface GRP78. […] 4T1 breast carcinoma cells were treated with FITC-RKD (green) 24 h. Cells were fixed and stained by Phalloidin (red) to represent the cell outline. Nuclei were counter stained by DAPI (blue).

In assay [5] the target is T2, GRP78, purified recombinant protein (UniProt P11021 19-654, limits assumed).
T2 construct: also called glucose-regulated protein 78 kDa; BiP
Briefly: ELISA solid phase-binding assay, GRP78 titrated on the coated ligand.

In assay [6] the test system is endothelial cells (ECs). Briefly: Apoptosis assay (Cell Death ELISA) in cultured ECs. The class given is cell-based. The protocol:
ECs (2×10^4 cells per well) in 96-well plate were starved in 2% FBS basal CSC medium for 3 h. Cells were then incubated with peptides of various concentrations and 15 ng/ml VEGF for 24 h. Apoptosis was detected by measuring cytosolic oligonucleosome-bound DNA using a Cell Death ELISA kit purchased from Roche (USA). Plots represented the mean of 3 wells of apoptotic cells in 96 well plate (±SEM).

Assay [7] has as its system HUVECs. As to the kind of experiment: Tube formation assay on Matrigel. The class given is cell-based, human. The protocol:
HUVECs (1×10^4) were pre-treated with peptides of various concentrations for 30 min before being plated onto the polymerized Matrigel (Millipore, USA) in 15-well μ-slide (Ibidi, Germany). After 4-6 h, capillary network was documented using Zeiss Axiovert200 inverted microscope (Maple Grove, Minn., USA). Tube length was quantified by measuring the length of branches in representative fields using ImageJ software. Plots represented the mean of 3 wells of tubular length in 15-well μ-slide (t SEM).

Assay [8] relates to ECs. Briefly: Cell attachment (EC adhesion) assay. The class given is cell-based. As to conditions: peptide coated on plastic surface. The protocol: 96-well plates were coated with 50 μl of 1 μM ISM at 4° C. overnight. Nonspecific binding sites were blocked with 1% BSA for 2 h at 37° C. ECs were harvested and incubated in CSC basal medium containing 4 μg/ml neutralizing antibodies or control IgG for 30 min. 2[…]104 cells were plated to each well and allowed to attach for 60 min at 37° C. Attached cells were fixed by 10% formalin and stained with 0.2% crystal violet. Absorbed crystal violet was extracted by 10% acetic acid and quantified by measuring the absorbance of eluted dye at 595 nm with a microplate reader.

Assay [9] deals with T1, GRP78. As to the kind of experiment: ELISA solid phase-binding assay for binding affinity to GRP78. The protocol:
(§2) ELISA solid phase-binding assay was used to determine the dissociation constant between ISM or cyclic peptide and GRP78 as previously described with minor modification (Nishiuchi, Takagi et al. 2006). 96-well plates were coated with 50 μl of 10 nM cyclic peptide at 4° C. overnight. Nonspecific binding sites were blocked with 1% BSA for 2 h at room temperature. Increasing concentrations of GRP78 were incubated with immobilized cyclic peptide. After washing, the amount of bound GRP78 was quantified by ELISA. The value for Kd was calculated by GraphPad Prism software.
Target sequence in this assay (P11021 19-654, species assumed): as above

Assay [10] deals with T2, GRP78, purified recombinant protein. As to the kind of experiment: ELISA solid phase-binding assay, compared with cRKD. The protocol:
as §2
Using similar ELISA method, we determined the binding affinity between kRKD peptide and GRP78 using purified recombinant GRP78 protein.

The test system of assay [11] is B16F10 melanoma. Briefly: Mouse tumorigenesis: subcutaneous B16F10 melanoma, intravenous treatment from day 0. The assay is classed as in vivo. The protocol: FIG. 4 Recombinant ISM and ISM derived cRKD peptide inhibit B16F10 tumour growth in vivo. A. Tumour growth curve in mice. X-axis represents the days after 5×10^5 tumour cell inoculation. Groups consisted of control mice receiving no treatment, recombinant ISM, cRKD peptide and its control-cyclic RAA peptide, given in six doses of 250 μg/mouse through tail vein injection on days 0, 2, 4, 6, 8, and 10 (5 mice in each group, each mice with one tumour). **: p<0.01,*: p<0.05, n=5. B. Tumour weight at the end of the experiment (14 days after tumour cell inoculation). C. Recombinant ISM and cRKD peptide inhibits B16F10 tumour growth. […] Paraffin sections of tumors from mice groups treated by control, ISM, cRAA and cRKD peptides were probed for microvessel density, tumor cell proliferation and apoptosis through immunofluoresence staining using anti-CD31 (A), anti-PCNA (B) and TUNEL staining (C) respectively. Representative photos are shown. (D) Quantification of microvessel density. Microvessel density is the number of microvessels per microscopic field. (E) Quantification of cell proliferation in tumor sample. Cell proliferation is presented as the percentage of PCNA positive cells out of the total number of cells (DAPI positive cells) in the microscopic field. (F) Quantification of apoptosis in tumor. Apoptosis is quantified as the percentage of TUNEL positive cells out of the total number of cells (DAPI positive cells) in the microscopic field. Plots represent the mean of 3 fields per section, 3 sections per tumor and 2 tumors per group (±SEM). ** P≦0.01, * P≦0.05; Adult 8-week-old female C57BL/6J mice were used in this study. Animal care and experimentation was carried out under the institutional guidelines issued by the local institutional animal care and use committee (IACUC; protocol 066/12). 5×10^5 B16F10 cells in 0.1 ml PBS were injected subcutaneously into the dorsal left flank of the mouse. Twenty mice were assigned into 4 different groups consisted of control mice receiving no treatment, recombinant ISM, cyclic RKD peptide and its peptide control-cyclic RAA peptide, given in six doses of 250 μg through tail vein injection on days 0, 2, 4, 6, 8, and 10 (5 mice in each group, each mice with one tumor). Health status of the mice was monitored over two weeks and visible tumor size were measured daily by calipers after 8 days until the end point (day 14). Tumor volume was calculated using the following formula: 0.52×length×(width)^2 mm^3, where the largest dimension of the tumor is considered as the length and the width is the perpendicular dimension. On day 14, mice were sacrificed, and their dorsal flank was opened and photographed to exam the vascularization. Then tumors were excised and weighed followed by either fixing in 4% paraformaldehyde for sectioning or snap-freezing in liquid nitrogen for further analysis. Paraffin-embedded tissue sections of 5 μm were deparaffinized by heating at 60° C. for 7 minutes before deparaffinizing in histoclear followed by the rehydration in graded series of alcohol (100%, 90%, 80%, and 70% ethanol in ddH2O) and finally in PBS for 5 minutes. Antigen retrieval was done in a bench-top 2100-Retriever according to the protocol of the manufacturer (Electron Microscopy Sciences, Hatfield, Pa.). The sections were blocked with 3% bovine serum albumin (BSA) in a humidified chamber for 1 hour at room temperature followed by overnight incubation with the anti-CD31 (Santa Cruz Biotechnology, Santa Cruz, Calif.), anti-PCNA antibody (Santa Cruz Biotechnology), anti-GRP78 antibody (Santa Cruz Biotechnology), or anti-His tag antibody (Santa Cruz Biotechnology) at 4° C. The following day, unbound antibody was washed with 1×PBS containing 0.1% Tween-20 (1×PBST) and incubated with the corresponding Alexafluor 568 secondary antibodies (Life Technologies) for 1.5 hours at 37° C. Sections were rinsed again and incubated for 10 minutes with DAPI at 1 μg/mL to visualize the DNA in the cell nucleus. […]

Assay [12] deals with T1, GRP78. As to the kind of experiment: Pull down assay with HUVEC plasma membrane extract. The class given is binding. Further details: Incubation of ISM with plasma membrane extract from HUVECs; endogenous in cells; host or cells: HUVEC plasma membrane fraction. As to conditions: plasma membrane extract from HUVECs.
Source text: His-tagged ISM and its binding partners from plasma membrane extract were pulled down by Epitope Tag Protein Isolation Kit with separation columns purchased from μMACS (Bergisch Gladbach, Germany). For searching potential binding partners of ISM, eluants were subjected to SDS-PAGE and stained with coomassie blue. Excised bands were identified by MALDI-TOF-TOF mass spectrometry analysis.
as §1
Target sequence in this assay (P11021 19-654): as the sequence (P11021 19-654, species assumed) above

Positions of bridges follow the written chain, without caps; N, C: chain ends. No end group written: not given here. *: point of attachment. FITC = O=C1OC2(c3ccc(O)cc3Oc3cc(O)ccc32)c2ccc(NC(=S)*)cc21

T2 sequence (P11021 19-654 limits assumed): as the sequence (P11021 19-654, species assumed) above

“FITC-RKD: FITC-CRKDC, disulfide bridge 1-5 ({FITC}-CRKDC; disulfide 1-5)”: in [1] (anti-FITC antibody, plasma membrane fraction of cultured HUVECs), the “binding to cell-surface GRP78 by co-immunoprecipitation” value is reported as “binds cell-surface GRP78”. For the same molecule, in assay [2], the “cell types labelled in the tumor” value is “Both tumor cells and tumor blood vessel endothelial cells are labeled”; the “labelling of xenograft melanoma” value is “preferentially labelled xenograft melanoma”. Moreover, the “uptake by cultured HUVECs” value in [3] is recorded as “efficiently taking up by cultured HUVECs”. Besides, the “binding to 4T1 cell surface” value in assay [4] is “binds 4T1 breast cancer cell surface in vitro”.

On to “Isthmin (ISM), recombinant His-tagged protein (from UniProt A2ATD1 30-454) (ligand)”, for which the dissociation constant Kd in [5] was 8.6 nM.

As for “cRAA: Negative control mutant peptide, sequence CRAAC, disulfide bridge 1-5 (disulfide 1-5) [reference compound]”, in assay [6] (1 μM peptide, cultured ECs with VEGF), the “pro-apoptotic activity at 1 μM” value is reported as “almost no activity”. Moreover, the “induction of EC apoptosis (pro-apoptotic activity)” value in [6] (cultured ECs in the presence of VEGF, 24 h) is “completely destroyed the proapoptotic activity”. Besides, the “anti-angiogenic activity at 1 μM” value in [7] (1 μM peptide) is on record as “no anti-angiogenic activity”. Besides, in assay [7] (dose-dependence), the “inhibition of EC tube-like structure formation on Matrigel” value is “lost this activity”. The “EC attachment and adhesion” value in assay [8] is “lost the ability to mediate EC adhesion”. In addition, the “affinity for GRP78, fold less than cRKD” value in assay [9] (relative to cRKD) was “about 50 fold”.

B1: Cyclic RAA peptide (cRAA) (peptide)
peptide: CRAAC
modifications: disulfide 1-5
notes: Mutant control of cRKD, with K and D both changed to A; also called control-cyclic RAA peptide
Turning to B1, the “fold lower affinity than cRKD” value in [10] is ~50 fold.

B2: ISM: Isthmin, a 60 kDa secreted angiogenesis inhibitor; recombinant His-tagged mouse protein (protein, UniProt A2ATD1 30-454, looked up)
Isthmin-1: SDRQDAAAGNNNLNLESDSTSETSFPLSKEAPEEHQVVHQPFPRQRFPPETGHPSLQRDGPRSFLLDLPNFPDLSKADINGQNPNIQVTIEVVDGPDSEAEKDQHPENKPSWSLPAPDWRAWWQRSLSLARTNSGDQDDKYDSTSDDSNFLSVPRGWDRPAPGHRTFETKEQPEYDSTDGEGDWSLWSVCSVTCGNGNQKRTRSCGYACIATESRTCDRPNCPGIEDTFRTAATEVSLLAGSEEFNATKLFEVDMDSCERWMSCKSEFLKKYMHKVINDLPSCPCSYPTEVAYSTADIFDRIKRKDFRWKDASGPKEKLEIYKPTARYCIRSMLSLESTTLAAQHCCYGDNMQLITRGKGAGTPNLISTEFSAELHYKVDVLPWIICKGDWSRYNEARPPNNGQKCTESPSDEDYIKQFQEAREY
modifications: His tag
notes: recombinant His-tagged mouse protein
Turning to B2, the tumor growth entry in assay [11] (250 μg/mouse intravenous every 2 days, days 0-10, subcutaneous B16F10) is recorded as “suppressed tumor growth”. Moreover, the “vascularization (blood vessels supplying the tumor)” value in [11] (250 μg/mouse intravenous, day 14) is “reduced vascularization”. Besides, the “tumor angiogenesis, tumor cell proliferation and tumor cell apoptosis” value in assay [11] (immunofluorescence of tumor sections) was “suppress tumor angiogenesis, tumor cell proliferation and induce tumor cell apoptosis”. Moreover, in assay [11] (tumor sections, compared to controls), the “apoptosis of tumor cells and tumor ECs (CD31/TUNEL double staining)” value is recorded as “both tumor cells as well as tumor ECs became apoptotic”. Moreover, the “tumor vessel density (anti-CD31 immunofluorescence)” value in [11] (tumor tissue sections) is “obvious reduction of tumor vessel density”. In [9] (purified recombinant GRP78), the Kd is 8.6 nM. Further, in assay [1] (purified recombinant ISM and GRP78 proteins), the “ISM-GRP78 interaction by co-immunoprecipitation” value is given as “confirmed the ISM-GRP78 interaction”. In addition, the “binding partner of ISM identified by pull-down” value in assay [12] is on record as “identified GRP78 as a ISM binding protein”.
